From PMC8602850 come the findings set out here.

The target of assay [1] is gC1qR, wild type, mature recombinant (receptor for the globular heads of C1q) (UniProt Q07021). Briefly: SPR; gC1qR-WT or gC1qR-ΔΔ immobilised; two-fold dilution series of analyte injected; reference-corrected sensorgrams fit to kinetic models; apparent KD. In general terms: SPR reads the build-up and loss of mass on a sensor chip optically.
The target of assay [2] is gC1qR-ΔΔ, gC1qR deletion mutant that removed the flexible, negatively charged loops (UniProt Q07021). Briefly: not stated; not published; oligomeric state of gC1qR-ΔΔ in solution and in the crystal.

gC1qR, wild type, mature recombinant (receptor for the globular heads of C1q), sequence (Q07021 74-282): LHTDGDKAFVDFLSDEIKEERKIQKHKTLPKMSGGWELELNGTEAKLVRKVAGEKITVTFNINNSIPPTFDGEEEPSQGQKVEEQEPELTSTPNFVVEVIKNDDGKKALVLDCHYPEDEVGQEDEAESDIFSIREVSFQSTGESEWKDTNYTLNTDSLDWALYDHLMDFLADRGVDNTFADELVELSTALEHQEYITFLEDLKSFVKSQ
gC1qR-ΔΔ, gC1qR deletion mutant that removed the flexible, negatively charged loops (from UniProt Q07021 74-282) (receptor), sequence (Q07021 74-282, stated change not applied): as the sequence (Q07021 74-282) above

Turning to “SARS-CoV-2 Membrane-Envelope fusion protein, recombinant”, the Kd in assay [1] turned out to be 410 nM.

On to “gC1qR-ΔΔ, gC1qR deletion mutant that removed the flexible, negatively charged loops (from UniProt Q07021 74-282) (receptor)”, for which the stoichiometry N (usually a count of units in the complex or per binding partner) in assay [2] was found to be 3.
